Experimental data reported in patent publication US20200002421A1 (AbbVie / Abbott, published 2020).

T1: hB7-H3 (ELISA antigen of Tables 17 and 20) (human, UniProt Q5ZPR3 29-466, limits assumed)
T1 sequence: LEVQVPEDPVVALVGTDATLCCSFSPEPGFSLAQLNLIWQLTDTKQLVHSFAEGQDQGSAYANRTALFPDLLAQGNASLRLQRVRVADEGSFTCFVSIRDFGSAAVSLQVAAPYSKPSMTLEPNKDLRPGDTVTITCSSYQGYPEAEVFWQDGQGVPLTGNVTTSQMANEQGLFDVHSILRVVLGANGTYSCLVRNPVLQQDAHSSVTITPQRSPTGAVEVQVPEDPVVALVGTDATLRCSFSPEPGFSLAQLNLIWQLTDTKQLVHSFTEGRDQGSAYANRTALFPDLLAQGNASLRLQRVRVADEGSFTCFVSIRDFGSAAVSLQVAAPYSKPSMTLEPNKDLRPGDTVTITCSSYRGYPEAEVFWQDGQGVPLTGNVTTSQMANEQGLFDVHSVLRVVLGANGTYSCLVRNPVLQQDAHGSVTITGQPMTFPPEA

T2: Human full length B7-H3 (human, UniProt Q5ZPR3 29-534)
T2 construct: on 3T12 transfectants, NCI-H1650 and other cells; also called huB7-H3; hu B7-H3
T2 sequence: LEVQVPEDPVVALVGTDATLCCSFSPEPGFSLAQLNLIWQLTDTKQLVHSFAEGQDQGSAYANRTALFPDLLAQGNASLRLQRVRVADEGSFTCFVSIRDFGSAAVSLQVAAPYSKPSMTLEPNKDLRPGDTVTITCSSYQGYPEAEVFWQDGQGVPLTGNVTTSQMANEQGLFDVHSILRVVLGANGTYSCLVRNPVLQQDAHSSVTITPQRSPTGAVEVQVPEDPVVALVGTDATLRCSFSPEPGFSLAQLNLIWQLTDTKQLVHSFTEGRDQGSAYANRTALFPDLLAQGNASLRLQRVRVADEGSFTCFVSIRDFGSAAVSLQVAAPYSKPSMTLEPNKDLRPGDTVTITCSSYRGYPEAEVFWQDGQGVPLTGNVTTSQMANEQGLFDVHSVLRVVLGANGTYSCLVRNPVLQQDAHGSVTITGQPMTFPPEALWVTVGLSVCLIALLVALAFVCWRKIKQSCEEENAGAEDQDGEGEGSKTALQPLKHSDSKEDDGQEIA


Legend:
[1] = target: T1, hB7-H3 (ELISA antigen of Tables 17 and …); test: ELISA
Human full length B7-H3 [2] = target: T2, Human full length B7-H3; test: FACS, 3T12 transfectants
[3] = target: T3, Cynomolgous B7-H3 on cells (cynomolgus); test: FACS, 3T12 transfectants
T3 construct: whole, on cells; also called cyno B7-H3; cyB7-H3

Human full length B7-H3 [4] = target: T2, Human full length B7-H3; test: cell-based or functional assay

Row | EC50 [1] [nM] | EC50 (Human full length B7-H3 [2]) [nM] | EC50 [3] [nM] | Binder | EC50 nM H1650 (in vitro tumor cell cytotoxicity) (Human full length B7-H3 [4]) [nM]
1 | 0.44 | 5.11 | 2.87 | huAb3v2 (antibody, V domains shown) VH: EVQLVQSGAEVKKPGSSVKVSCKASGYTFSSYWMHWVRQAPGQGLEWIGLIHPDSGSTNYNEMFKNRATLTVDRSTSTAYMELSSLRSEDTAVYYCAGGGRLYFDYWGQGTTVTVSS VL: DIVMTQSPLSLPVTPGEPASISCRSSQSLVHSNGDTYLRWYLQKPGQSPQLLIYKVSNRFSGVPDRFSGSGSGTDFTLKISRVEAEDVGVYYCSQSTHVPYTFGGGTKVEIK | 
2 | 0.13 |  | 4.86 | huAb3v2.5 (antibody, human IgG1, kappa, L234A L235A, V domains shown, Ig gamma-1 mutant / kappa) VH: EVQLVQSGAEVKKPGSSVKVSCKASGYTFSSYWMHWVRQAPGQGLEWIGLIHPESGSTNYNEMFKNRATLTVDRSTSTAYMELSSLRSEDTAVYYCAGGGRLYFDYWGQGTTVTVSS VL: DIVMTQSPLSLPVTPGEPASISCRSSQSLVHSNRDTYLRWYLQKPGQSPQLLIYKVSNRFSGVPDRFSGSGSGTDFTLKISRVEAEDVGVYYCSQSTHVPYTFGGGTKVEIKR | 
3 | 0.1 | 5.29 | 3.68 | huAb3v2.2 (antibody, V domains shown) VH: EVQLVQSGAEVKKPGSSVKVSCKASGYTFSSYWMHWVRQAPGQGLEWIGLIHPWSGSTNYNEMFKNRATLTVDRSTSTAYMELSSLRSEDTAVYYCAGGGRLYFDYWGQGTTVTVSS VL: DIVMTQSPLSLPVTPGEPASISCRSSQSLVHSNRDTYLRWYLQKPGQSPQLLIYKVSNRFSGVPDRFSGSGSGTDFTLKISRVEAEDVGVYYCSQSTHVPYTFGGGTKVEIK | 
4 | 0.11 | 6.5 | 4.03 | huAb3v2.3 (antibody, V domains shown) VH: EVQLVQSGAEVKKPGSSVKVSCKASGYTFSSYWMHWVRQAPGQGLEWIGLIHPWSGSTNYNEMFKNRATLTVDRSTSTAYMELSSLRSEDTAVYYCAGGGRLYFDYWGQGTTVTVSS VL: DIVMTQSPLSLPVTPGEPASISCRSSQSLVHSNQDTYLRWYLQKPGQSPQLLIYKVSNRFSGVPDRFSGSGSGTDFTLKISRVEAEDVGVYYCSQSTHVPYTFGGGTKVEIK | 
5 |  |  |  | huAb13v1-WD (antibody, human IgG1, kappa, L234A L235A, V domains shown, synthon WD on interchain Cys) VH: EVQLQESGPGLVKPSETLSLTCAVTGYSITSGYSWHWIRQFPGNGLEWMGYIHSSGSTNYNPSLKSRISISRDTSKNQFFLKLSSVTAADTAVYYCAGYDDYFEYWGQGTTVTVSS VL: DIQMTQSPSSLSASVGDRVTITCKASQNVGFNVAWYQQKPGKSPKALIYSASYRYSGVPSRFSGSGSGTDFTLTISSLQPEDFAEYFCQQYNWYPFTFGQGTKLEIKR | 0.45
6 |  |  |  | huAb13v1-ZT (antibody, human IgG1, kappa, L234A L235A, V domains shown, synthon ZT on interchain Cys) VH: EVQLQESGPGLVKPSETLSLTCAVTGYSITSGYSWHWIRQFPGNGLEWMGYIHSSGSTNYNPSLKSRISISRDTSKNQFFLKLSSVTAADTAVYYCAGYDDYFEYWGQGTTVTVSS VL: DIQMTQSPSSLSASVGDRVTITCKASQNVGFNVAWYQQKPGKSPKALIYSASYRYSGVPSRFSGSGSGTDFTLTISSLQPEDFAEYFCQQYNWYPFTFGQGTKLEIKR | 0.3
7 |  |  |  | huAb13v1-ZZ (antibody, human IgG1, kappa, L234A L235A, V domains shown, synthon ZZ on interchain Cys) VH: EVQLQESGPGLVKPSETLSLTCAVTGYSITSGYSWHWIRQFPGNGLEWMGYIHSSGSTNYNPSLKSRISISRDTSKNQFFLKLSSVTAADTAVYYCAGYDDYFEYWGQGTTVTVSS VL: DIQMTQSPSSLSASVGDRVTITCKASQNVGFNVAWYQQKPGKSPKALIYSASYRYSGVPSRFSGSGSGTDFTLTISSLQPEDFAEYFCQQYNWYPFTFGQGTKLEIKR | 0.42
8 |  |  |  | huAb13v1-LB (antibody, human IgG1, kappa, L234A L235A, V domains shown, synthon LB on interchain Cys) VH: EVQLQESGPGLVKPSETLSLTCAVTGYSITSGYSWHWIRQFPGNGLEWMGYIHSSGSTNYNPSLKSRISISRDTSKNQFFLKLSSVTAADTAVYYCAGYDDYFEYWGQGTTVTVSS VL: DIQMTQSPSSLSASVGDRVTITCKASQNVGFNVAWYQQKPGKSPKALIYSASYRYSGVPSRFSGSGSGTDFTLTISSLQPEDFAEYFCQQYNWYPFTFGQGTKLEIKR | > 133
